In article doi:10.1101/2023.10.30.564768, “The LexA-RecA* structure reveals a lock-and-key mechanism for SOS activation” (bioRxiv, 2023):
Numbering of substitutions follows the chain as printed. Numbers in names are those of the source.

What was measured:
[1] = molecular target: T1, His-RecA WT, activated as RecA* (nucleoprotein filament on ssDNA with ATPγS) (E. coli, UniProt P0A7G6 1-353); assay: fluorescence polarisation; competition, fluorescence anisotropy; unlabeled LexA K156A or QM (140 nM to 18.3 µM) spiked into pre-formed RecA* alongside LexA Q161δ; three-parameter dose-response fit; details: both partners purified
T1 construct: RecA, E. coli; source: E. coli ΔrecA BLR(DE3), purified (cobalt resin, ammonium sulfate, heparin); not shown: poly-His, N-terminal, kept
T1 sequence (looked up): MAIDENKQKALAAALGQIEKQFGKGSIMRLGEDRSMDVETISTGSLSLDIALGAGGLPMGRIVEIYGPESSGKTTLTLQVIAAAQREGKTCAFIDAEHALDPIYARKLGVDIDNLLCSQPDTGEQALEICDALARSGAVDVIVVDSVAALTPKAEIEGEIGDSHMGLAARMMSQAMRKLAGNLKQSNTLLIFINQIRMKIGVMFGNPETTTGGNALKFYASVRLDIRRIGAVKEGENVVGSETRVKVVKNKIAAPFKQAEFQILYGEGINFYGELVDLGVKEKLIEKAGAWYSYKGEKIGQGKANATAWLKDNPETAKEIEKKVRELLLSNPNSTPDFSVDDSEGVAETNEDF

[2] = molecular target: the molecule itself; assay: cryo-EM structure; RecA* pre-formed from 5 µM His-RecA WT and 1 µM GGT 90-mer ssDNA in 70 mM Tris-HCl pH 7.5, 150 mM NaCl, 1 mM MgCl2, 2 mM TCEP, 0.25 mM ATPγS, 20 min; LexA K156A added to 25 µM, 30 min, room temperature

B1: His-LexA K156A (natural protein, E. coli, UniProt P0A7C2 1-202, looked up)
chain: MKALTARQQEVFDLIRDHISQTGMPPTRAEIAQRLGFRSPNAAEEHLKALARKGVIEIVSGASRGIRLLQEEEEGLPLVGRVAAGEPLLAQQHIEGHYQVDPSLFKPNADFLLRVSGMSMKDIGIMDGDLLAVHKTQDVRNGQVVVARIDDEVTVARLKKQGNKVELLPENSEFKPIVVDLRQQSFTIEGLAVGVIRNGDWL
notes: LexA repressor, E. coli; source: E. coli BL21(DE3), purified (cobalt resin, heparin)
[1]
  binding result: binds

B2: untagged LexA K156A (full-length, catalytically inactive) (natural protein, E. coli, UniProt P0A7C2 1-202, looked up)
chain: B1 chain
notes: LexA repressor, E. coli; Used for cryo-EM only; source: E. coli BL21(DE3), purified (cobalt resin, heparin; His-tag removed with thrombin); not shown: poly-His, N-terminal, cleaved
[2]
  binding result: binds

B3: LexA quad-mutant (QM): L89P, Q92W, E152A, K156A (natural protein, E. coli, UniProt P0A7C2 1-202, looked up)
chain: B1 chain with L89P, Q92W, E152A
notes: LexA repressor, E. coli; also called LexA QM; hyperactive LexA variant; source: E. coli BL21(DE3), purified (cobalt resin, heparin)
[1]
  fold weaker binding relative to LexA K156A: ~8 fold
